# In patent publication US12102696B2, “Radiolabeling and formulation for scale up of 64Cu-DOTATATE” (Curium US LLC, priority 2020, dated 2024):
# Marks after values point to notes of the source that are not given here.
# Key:
# [1] = Stability (RCP by radio-HPLC) of purified scale-up 64Cu-DOTATATE reactions; format: physicochemical; details: for RCP: Sep-Pak purified material
# Protocol: (§1) HPLC was performed using an Agilent 1200 series system equipped with a variable wavelength UV-Vis detector followed in-line with a sodium iodide detector (Bioscan B-FC-200P). A Phenomenex Luna C18 column (150 mm×.4.6 mm, 5 μm) was used. The mobile phase was made of Solvent A and Solvent B. Solvent A was a 0.1% trifluoroacetic acid (TFA) in HRW, and solvent B was 0.1% TFA acid in acetonitrile (ACN). The gradient was (i) 15-40% Solvent B in A for 10 min, 40% Solvent B in A from 10 to 15 min, 15% Solvent B in A from 15-16 min, and 15% Solvent B in Solvent A from 16-19 min. The flow rate was 1.2 mL/min, and UV detection was monitored at 220 nm.
# Radiolabeling reactions followed the general procedure described herein. A solution of ^64Cu in 0.05 M HCl was mixed with a solution of DOTATATE in sodium acetate/gentisic acid buffer. The reaction mixture was heated to 30° C. for 5 min and then purified via a C-18 solid phase extraction cartridge. The purified ^64Cu-DOTATATE was collected in 2 mL of 50% EtOH and subsequently diluted with an ascorbic acid solution. The final product was assayed for activity and the radiochemical purity (RCP) was evaluated via radio-HPLC analysis. Characterization was performed against non-radioactive DOTATATE (tR=6.3 min) and Cu-DOTATATE (tR=7.3 min) standards.
# Representative reactions for 100 mCi-7000 mCi batch sizes and results are outlined in Table 9. […] The remainder of the activity eluted (tR=6.2-7.2 min) are attributed to degradation products due to radiolysis.
# [2] = Stability of 64Cu-DOTATATE in final dose matrix (NaOAsc, EtOH, GA) by HPLC; format: physicochemical
# Protocol: as §1
# The effect of ethanol (EtOH) and gentisic acid (GA) content in the final dose matrix on chemical stability of ^64Cu-dotatate was assessed. In these experiments, 500 mCi reactions were performed using the general procedure outlined in Example 2 and the ^64Cu-DOTATATE product was eluted from the Sep-Pak with 2 mL of 50% EtOH (aq) into 5 mL of 50 mg/mL NaOAsc buffer to serve as the purified ^64Cu-DOTATATE stock solution. From the ^64Cu-DOTATATE stock, 1 mL aliquots were transferred to vials containing the following solutions:
# In those samples, the decrease in ^64Cu-DOTATATE correlated with an increase in free ^64Cu and two unknown radioimpurities at tR=6.6 min and 7.1 min.
# [3] = biological target: somatostatin receptors, subtype 2 receptors (SSTR2) (Homo sapiens, UniProt P30874); details: cited from earlier work
# Chain of somatostatin receptors, subtype 2 receptors (SSTR2) (P30874 whole entry): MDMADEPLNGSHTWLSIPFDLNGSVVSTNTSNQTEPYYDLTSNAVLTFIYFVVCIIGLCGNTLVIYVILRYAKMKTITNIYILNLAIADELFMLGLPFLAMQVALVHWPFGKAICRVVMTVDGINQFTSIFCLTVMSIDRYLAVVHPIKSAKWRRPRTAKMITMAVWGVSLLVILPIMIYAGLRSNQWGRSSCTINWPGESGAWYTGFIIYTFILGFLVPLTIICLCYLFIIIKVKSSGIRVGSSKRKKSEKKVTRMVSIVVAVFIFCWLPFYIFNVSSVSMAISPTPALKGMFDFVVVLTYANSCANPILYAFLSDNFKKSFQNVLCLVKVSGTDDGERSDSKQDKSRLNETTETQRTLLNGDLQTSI
# [4] = reaction 120.6 mCi 64Cu at TOS, 200 μg DOTATATE
# [5] = reaction 481 mCi 64Cu at TOS, 1000 μg DOTATATE, average of two samples
# [6] = reaction 1190 mCi 64Cu at TOS, 2000 μg DOTATATE, average of two samples
# [7] = reaction 2402 mCi 64Cu at TOS, 4000 μg DOTATATE, average of two samples
# [8] = reaction 7297 mCi 64Cu at TOS, 4378 μg DOTATATE
structure (smiles),measurement,setting,value
"C[C@@H](O)[C@H](NC(=O)[C@@H]1CSSC[C@H](NC(=O)[C@@H](Cc2ccccc2)NC(=O)CN2CCN3CCN(CC(=O)O)CCN(CC2)CC(=O)[O][64Cu][O]C(=O)C3)C(=O)N[C@@H](Cc2ccc(O)cc2)C(=O)N[C@H](Cc2c[nH]c3ccccc23)C(=O)N[C@@H](CCCCN)C(=O)N[C@@H]([C@@H](C)O)C(=O)N1)C(=O)O [^64Cu-DOTATATE, copper (Cu64)-N-[(4,7,10-Tricarboxymethyl-1,4,7,10-tetraazacyclododec-1-yl)acetyl]-Dphenylalanyl-L-cysteinyl-L-tyrosyl-D-tryptophanyl-L-lysyl-L-threoninyl-L-cysteinyl-L-threonine-cyclic (2-7) disulfide]",period over which stable (HPLC),[1]; purified reaction solutions,at least 47 h
same,RCP Day 1 (+24 hr),[1]; [4],97.7%^
same,RCP Day 2 (+47 hr),[1]; [4],95.0%^
same,RCP,[1]; [4],98.9%^
same,RCP,[1]; [5],99.4%^c
same,RCP Day 1 (+24 hr),[1]; [5],99.7%^c
same,RCP Day 2 (+47 hr),[1]; [5],99.4%^c
same,RCP,[1]; [6],99.6%^c
same,RCP Day 1 (+24 hr),[1]; [6],99.4%^c
same,RCP Day 2 (+47 hr),[1]; [6],99.7%^c
same,RCP,[1]; [7],99.2%^c
same,RCP Day 1 (+24 hr),[1]; [7],99.4%^c
same,RCP Day 2 (+47 hr),[1]; [7],99.3%^c
same,RCP Day 2 (+47 hr),[1]; [8],95%
same,RCP,[1]; [8],95%
same,"purity, chemically stable for two days","[2]; sodium ascorbate 45-122 mg/mL, ethanol 1.6%-5.2%, activity concentration 3.6-16 mCi/mL at time of preparation",greater than 95%
same,"purity, remained stable","[2]; sodium ascorbate up to 98 mg/mL, ethanol up to 9.7%, activity concentration approximately 18 mCi/mL at time of preparation",greater than 90%
same,affinity for somatostatin receptor subtypes,[3],highest affinity for subtype 2 receptors (SSTR2)
